In publication PMC3162248:

Key:
purified protein [1] = substrate: NC(=O)c1ccc[n+]([C@@H]2O[C@H](COP(=O)(O)O)[C@@H](O)[C@H]2O)c1; assay: purified protein; type: biochemical, Mus musculus; conditions: 1 mM ATP, 20 mM MgCl2, 20 mM HEPES-KOH pH 7.4, 37°C
purified protein [2] = substrate: Nc1ncnc2c1ncn2[C@@H]1O[C@H](COP(=O)(O)OP(=O)(O)OP(=O)(O)O)[C@@H](O)[C@H]1O; assay: purified protein; type: biochemical, Mus musculus; conditions: 1 mM NMN, 20 mM MgCl2, 20 mM HEPES-KOH pH 7.4, 37°C

Row | Protein | Km (purified protein [1]) [µM] | Km (purified protein [2]) [µM]
1 | Nmnat1 (mouse Nmnat1) (Mus musculus) (protein) MDSSKKTEVVLLACGSFNPITNMHLRLFELAKDYMHATGKYSVIKGIISPVGDAYKKKGLIPAHHRIIMAELATKNSHWVEVDTWESLQKEWVETVKVLRYHQEKLATGSCSYPQSSPALEKPGRKRKWADQKQDSSPQKPQEPKPTGVPKVKLLCGADLLESFSVPNLWKMEDITQIVANFGLICITRAGSDAQKFIYESDVLWRHQSNIHLVNEWITNDISSTKIRRALRRGQSIRYLVPDLVQEYIEKHELYNTESEGRNAGVTLAPLQRNAAEAKHNHSTL | 27.6 | 50.4
2 | Nmnat1 (mouse Nmnat1) (Mus musculus; H24A) (protein) MDSSKKTEVVLLACGSFNPITNMALRLFELAKDYMHATGKYSVIKGIISPVGDAYKKKGLIPAHHRIIMAELATKNSHWVEVDTWESLQKEWVETVKVLRYHQEKLATGSCSYPQSSPALEKPGRKRKWADQKQDSSPQKPQEPKPTGVPKVKLLCGADLLESFSVPNLWKMEDITQIVANFGLICITRAGSDAQKFIYESDVLWRHQSNIHLVNEWITNDISSTKIRRALRRGQSIRYLVPDLVQEYIEKHELYNTESEGRNAGVTLAPLQRNAAEAKHNHSTL |  | 47.3
3 | Nmnat1 (mouse Nmnat1) (Mus musculus; W170A) (protein) MDSSKKTEVVLLACGSFNPITNMHLRLFELAKDYMHATGKYSVIKGIISPVGDAYKKKGLIPAHHRIIMAELATKNSHWVEVDTWESLQKEWVETVKVLRYHQEKLATGSCSYPQSSPALEKPGRKRKWADQKQDSSPQKPQEPKPTGVPKVKLLCGADLLESFSVPNLAKMEDITQIVANFGLICITRAGSDAQKFIYESDVLWRHQSNIHLVNEWITNDISSTKIRRALRRGQSIRYLVPDLVQEYIEKHELYNTESEGRNAGVTLAPLQRNAAEAKHNHSTL | 1400 | 
